Laboratory results from patent publication US20220098328A1, “ANTIBODIES TO M(H)DM2/4 AND THEIR USE IN DIAGNOSING AND TREATING CANCER” (NomoCan Pharmaceuticals LLC, priority 2017, published 2022).

Molecular target: NMC-P3 peptide (SEQ ID NO:3), amino acids 475-491 of HDM2 (Homo sapiens, UniProt Q00987)
Assay: Peptide-ELISA
Assay type: binding
Conditions: 5 μg/ml peptide on plate, OD 450 nm
Procedure: Peptide-ELISA Methodology: 5 μg/ml of NMC-P1, NMC-P2 or NMC-P3 peptide antigen was dried onto a 96-well ELISA plate overnight. Plates were then blocked with 5% BSA in 1× phosphate-buffered saline (PBS) (100 μl/well) for 2 hours at room temperature. Microplate wells were then washed 5 times with 300 μl of ice cold 1×PBS. Appropriate dilutions of monoclonal antibodies NMC-103, NMC-204 or NMC-303 in 1% bovine serum albumin (BSA) in PBS solution were then incubated with their corresponding peptides (NMC-P1, NMC-P2 or NMC-P3, respectively) at room temperature. After 2 hours, wells were washed 5 times with 300 μl ice-cold PBS/well and 100 μl secondary antibody (HRP-labeled Goat anti-Mouse F(ab′)2 H&L cross-adsorbed secondary antibody (HRP-GaM F(ab′)2), ThermoFisher, Cat. No. A24524) diluted 1:2500 to 1:5000 in PBS-1% BSA solution were added and the incubation continued at room temperature. After 1 hour, the wells were washed again 5 times with 200 μl of ice-cold PBS and 50 μL of the TMB Substrate Solution (1-Step™ Ultra TMB-ELISA, ThermoFisher, Cat. No. 34028) were added to each well and color was allowed to develop for 30 minutes at room temperature. The reaction was stopped by addition of 50 μL of stop solution (ThermoFisher, Cat. No. SS04) to each well and absorbance of each well was read immediately for optical density (OD) at 450 nm.

binding to NMC-P3 peptide: did not bind
B1: NMC-204: mouse monoclonal antibody of the IgG3 isotype that binds to NMC-P2 (SEQ ID NO:2); VH SEQ ID NO:38, VL SEQ ID NO:39 (antibody, V domains shown)
VH: EVQLQESGSVLVRPGASVKLSCKASGDTLSGSWMHWAMQRPGQGLEWIGEIHLNRGTTNYNEKFKGKATVTVDTSSSTAYVDLSSLTSEDSAVYYCARSPGFAYWGQGTLVTVSA
VL: GIVMTQAAPSVPVTPGESVSISCRSSKSLLHSNGNSYLYWFLQRPGQSPQLLIYRMSNLASGVPDRFSGSGSGTAFTLRITRVEAEDVGVYYCMQHLEYPFTFGSGTKLEIK
modifications: mAb NMC-204 Heavy Chain Variable Region; mAb NMC-204 Light Chain Variable Region
